The supplement of paper PMC9876800

System: peptide library, one residue held at a place counted from the S/T acceptor
Assay: relative phosphorylation of the sub-library (ratio to the mean residue at this position); higher = residue favoured
Settings: human
Method in brief: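 Relative sub-library phosphorylation is the ratio of each sub-library's signal to the mean residue at that position. The signal came from phosphorimaging of spots on streptavidin membranes, quantified by densitometry, after purified recombinant kinases reacted with biotinylated degenerate peptide sub-libraries in 384-well plates. Reactions held 50 μM peptide and 50 μM ATP spiked with γ-32P-ATP for 90 min under kinase-specific conditions.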

Chain of OXSR1, construct: Full length (O95747 whole entry, looked up): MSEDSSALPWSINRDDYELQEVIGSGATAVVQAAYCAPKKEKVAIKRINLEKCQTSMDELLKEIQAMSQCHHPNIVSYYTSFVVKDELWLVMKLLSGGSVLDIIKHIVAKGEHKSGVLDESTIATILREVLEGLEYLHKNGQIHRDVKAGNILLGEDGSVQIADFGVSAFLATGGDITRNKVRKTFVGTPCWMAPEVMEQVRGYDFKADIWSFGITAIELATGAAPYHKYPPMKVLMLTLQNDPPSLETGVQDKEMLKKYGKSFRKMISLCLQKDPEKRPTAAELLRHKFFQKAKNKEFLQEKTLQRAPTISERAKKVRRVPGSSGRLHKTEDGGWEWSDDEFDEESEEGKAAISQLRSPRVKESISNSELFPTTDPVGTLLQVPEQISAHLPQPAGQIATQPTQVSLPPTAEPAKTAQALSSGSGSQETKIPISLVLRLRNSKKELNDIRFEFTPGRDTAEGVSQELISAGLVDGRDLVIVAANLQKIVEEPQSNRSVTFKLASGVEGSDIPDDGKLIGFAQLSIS
Chain of PHKG2, construct: aa6-293 (P15735 6-293, looked up): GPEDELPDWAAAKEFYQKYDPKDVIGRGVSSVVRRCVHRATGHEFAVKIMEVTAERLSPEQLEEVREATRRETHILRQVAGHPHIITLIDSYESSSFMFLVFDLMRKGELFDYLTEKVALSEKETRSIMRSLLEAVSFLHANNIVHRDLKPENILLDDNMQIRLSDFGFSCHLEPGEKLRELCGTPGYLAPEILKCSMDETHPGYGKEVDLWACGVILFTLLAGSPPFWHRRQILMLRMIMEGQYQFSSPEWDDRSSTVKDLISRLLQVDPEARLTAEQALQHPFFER
Chain of PBK, construct: Full length (Q96KB5 whole entry, looked up): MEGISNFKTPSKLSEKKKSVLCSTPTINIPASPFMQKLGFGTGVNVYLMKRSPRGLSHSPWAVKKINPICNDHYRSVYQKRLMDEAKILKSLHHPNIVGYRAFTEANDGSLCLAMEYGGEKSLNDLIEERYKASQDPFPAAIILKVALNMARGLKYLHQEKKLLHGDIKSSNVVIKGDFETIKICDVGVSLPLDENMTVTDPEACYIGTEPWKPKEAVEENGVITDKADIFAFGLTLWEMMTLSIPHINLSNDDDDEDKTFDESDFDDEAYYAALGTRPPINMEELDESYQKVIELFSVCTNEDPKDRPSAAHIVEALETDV
Chain of PAK5, construct: aa425-end (Q9P286 425-719, looked up): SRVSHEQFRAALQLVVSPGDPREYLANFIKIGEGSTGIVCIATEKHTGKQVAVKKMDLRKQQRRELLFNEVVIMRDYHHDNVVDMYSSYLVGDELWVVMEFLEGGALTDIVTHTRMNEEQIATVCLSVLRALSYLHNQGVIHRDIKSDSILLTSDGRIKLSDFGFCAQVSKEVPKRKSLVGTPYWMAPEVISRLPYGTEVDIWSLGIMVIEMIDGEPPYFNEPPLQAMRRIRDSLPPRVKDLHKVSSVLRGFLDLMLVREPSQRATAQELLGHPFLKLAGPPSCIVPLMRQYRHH

OXSR1, construct: Full length (from UniProt O95747)
relative phosphorylation
Settings	at +1	at +2	at +3	at +4	at -1	at -2	at -3	at -4	at -5
A fixed	0.587	0.646	1.07	1	0.862	0.695	0.845	1.05	1.23
D fixed	0.346	0.325	0.493	0.683	1.83	1.34	1.26	1.9	1.83
E fixed	0.382	0.249	0.487	0.666	1.19	1.31	1.27	1.8	1.52
F fixed	1.08	0.495	0.574	0.702	0.643	0.693	0.48	0.722	0.76
G fixed	0.509	1.09	1.42	1.37	0.801	1.31	1.17	1.41	1.4
H fixed	1.21	3.55	1.17	1.07	1.67	1.43	1.57	1	0.976
I fixed	1.69	0.541	0.443	0.596	0.447	0.333	0.36	0.329	0.386
K fixed	0.838	1.25	2.23	1.93	0.975	0.584	0.783	0.964	1.06
L fixed	1.14	0.459	0.531	0.634	0.931	0.432	0.384	0.416	0.519
M fixed	1.36	0.76	0.613	0.78	0.968	0.531	0.51	0.633	0.581
N fixed	0.689	1.18	1.1	0.947	1.64	1.69	2.04	1.14	0.96
P fixed	0.351	0.677	1.47	1.29	0.494	0.673	1.3	1.22	1.4
Q fixed	1.06	1	0.907	1.06	0.987	1.61	1.18	1.09	0.757
R fixed	1.04	2.08	2.47	1.7	1.33	0.677	0.846	0.994	1.12
V fixed	1.53	0.678	0.556	0.63	0.446	0.378	0.552	0.535	0.549
W fixed	1.99	0.782	0.72	1.09	0.706	0.84	0.663	0.864	0.852
Y fixed	1.2	1.23	0.739	0.856	1.09	2.46	1.79	0.937	1.11
pThr fixed	0.911	0.562	0.699	0.507	0.94	1.06	1.43	1.49	1.46
pTyr fixed	0.769	0.428	0.728	0.82	2.18	1.52	1.41	1.53	1.82

PAK5, construct: aa425-end (from UniProt Q9P286)
relative phosphorylation
Settings	at +1	at +2	at +3	at +4	at -1	at -2	at -3	at -4	at -5
A fixed	0.523	3.81	0.935	0.868	0.794	0.298	0.638	1.06	1.07
D fixed	0.142	0.456	0.657	0.741	0.332	0.0993	0.253	0.673	0.561
E fixed	0.161	0.217	0.94	0.704	0.254	0.0919	0.269	0.731	0.544
F fixed	1.37	0.928	1.42	0.877	1.06	0.519	0.574	0.881	0.948
G fixed	0.353	0.908	1.17	1.34	0.645	0.224	0.814	1.22	1.14
H fixed	0.93	0.94	1.08	0.987	1.36	1.1	1.02	1.16	1.18
I fixed	1.82	0.958	0.944	0.834	0.538	0.325	0.439	0.591	0.78
K fixed	0.715	0.343	0.634	0.97	1.72	0.815	3.3	1.53	1.74
L fixed	1.48	0.79	1.19	0.826	1.22	0.27	0.432	0.804	0.794
M fixed	1.83	0.681	1.07	0.876	1.28	0.347	0.557	0.932	0.835
N fixed	0.402	0.924	0.702	1.01	0.942	0.26	0.744	0.959	0.986
P fixed	0.18	0.846	1.08	1.74	0.278	0.576	0.567	0.867	0.899
Q fixed	0.672	0.742	0.842	0.977	0.991	0.455	0.895	1	0.836
R fixed	0.911	0.444	0.861	1.33	2.54	9.1	4.48	1.98	1.79
V fixed	1.55	1.87	0.962	0.798	0.531	0.333	0.376	0.586	0.791
W fixed	2.21	1.02	1.32	1.21	1.14	0.428	0.898	1.08	1.12
Y fixed	1.74	1.12	1.21	0.917	1.38	1.76	0.745	0.935	0.987
pThr fixed	0.367	0.442	0.647	0.925	0.214	0.201	0.373	0.693	0.735
pTyr fixed	0.581	0.527	0.956	0.732	0.268	0.216	0.45	0.731	0.729

PBK, construct: Full length (from UniProt Q96KB5)
relative phosphorylation
Settings	at +1	at +2	at +3	at +4	at -1	at -2	at -3	at -4	at -5
A fixed	1.09	1.14	1.03	1.16	1.08	0.848	1	1.04	1.29
D fixed	0.572	0.524	0.634	0.644	0.384	0.427	0.364	0.545	0.576
E fixed	0.364	0.523	0.604	0.608	0.397	0.382	0.37	0.534	0.491
F fixed	0.394	0.849	0.728	0.848	0.814	1.47	1.57	1.07	0.756
G fixed	7.99	1.17	1.69	1.23	1.25	0.76	0.673	1.11	1
H fixed	0.527	1.11	1.2	0.777	1.48	1.06	0.965	1.16	1.41
I fixed	0.386	0.928	0.641	0.976	0.394	1.07	0.587	0.563	0.733
K fixed	0.475	0.775	1.25	1.2	1.37	1.7	1.49	1.23	1.38
L fixed	0.52	1.04	0.907	1.05	0.719	1.07	0.691	0.669	0.723
M fixed	0.93	1.29	0.717	0.98	1.06	1.09	0.845	0.826	0.833
N fixed	0.658	0.913	1.05	0.855	1.09	0.678	0.625	0.991	0.981
P fixed	0.592	1.38	1.69	1.56	1.06	0.878	0.872	1.16	0.914
Q fixed	0.53	0.802	0.954	0.845	1.55	0.685	0.707	0.856	0.77
R fixed	0.535	0.829	1.24	1.05	1.81	1.23	1.98	1.56	1.99
V fixed	0.476	1.37	0.956	0.983	0.517	0.932	0.709	0.642	0.777
W fixed	0.552	1.45	0.816	1.17	0.76	1.57	1.89	2.04	1.55
Y fixed	0.406	0.891	0.9	1.07	1.27	1.14	1.66	1.01	0.812
pThr fixed	0.348	0.618	0.721	0.507	0.317	0.586	0.638	0.803	0.703
pTyr fixed	0.287	0.497	0.574	0.529	0.537	0.508	0.554	0.703	0.576

PHKG2, construct: aa6-293 (from UniProt P15735)
relative phosphorylation
Settings	at +1	at +2	at +3	at +4	at -1	at -2	at -3	at -4	at -5
A fixed	0.436	0.632	0.881	0.674	0.927	0.973	0.741	0.731	0.93
D fixed	0.155	0.214	0.222	0.297	0.609	0.353	0.242	0.326	0.364
E fixed	0.198	0.157	0.301	0.246	0.389	0.466	0.3	0.561	0.38
F fixed	2.96	1.28	1.04	1.21	1.07	0.891	0.368	0.797	1.1
G fixed	0.369	0.579	0.828	0.774	0.977	0.985	0.578	0.833	0.768
H fixed	0.681	1.43	1.12	0.916	0.871	0.867	0.899	1.15	0.999
I fixed	1.63	0.694	0.929	0.743	0.772	0.711	0.562	1.19	1.16
K fixed	0.664	2.43	1.79	1.95	1.84	1.5	3.76	1.84	1.73
L fixed	1.72	0.642	0.976	1.06	0.888	0.853	0.454	0.991	1.26
M fixed	1.77	0.757	0.974	0.885	0.987	1.12	0.576	1.13	0.958
N fixed	0.403	0.694	0.792	0.753	1.15	1.13	0.538	0.849	0.761
P fixed	0.107	0.267	0.616	0.556	1.11	0.528	0.422	0.587	0.706
Q fixed	0.593	0.601	0.851	1.02	0.917	1.72	0.77	0.878	0.776
R fixed	0.997	3.32	2.61	2.71	1.84	2.48	5.1	1.98	1.85
V fixed	0.896	0.574	0.856	0.719	0.9	0.778	0.477	0.922	1.15
W fixed	2.03	1.56	1.2	1.48	0.751	0.861	0.556	0.996	0.926
Y fixed	1.4	1.16	1.01	1.01	0.998	0.795	0.663	1.23	1.19
pThr fixed	0.353	0.302	0.378	0.285	0.558	0.0668	0.449	0.505	0.678
pTyr fixed	0.404	0.369	0.462	0.307	0.755	0.637	0.517	0.746	0.63
